In publication PMC10606890, “Studying the Association of TKS4 and CD2AP Scaffold Proteins and Their Implications in the Partial Epithelial–Mesenchymal Transition (EMT) Process” (International Journal of Molecular Sciences, 2023):
Blank lines part the entries; values can stand above or below the binder they belong to.

Target: T1, Myc-DDK-tagged human CD2-associated protein (human, UniProt Q9Y5K6 1-639)
T1 construct: human CD2-associated protein (CD2AP), full-length protein; also called Myc-tagged CD2AP; Myc-CD2AP recombinant protein; source: bought: Origene Technologies (RC210191), recombinant protein
Test: peptide or protein array; PepStar microarray of 225 TKS4 15-mers (11 overlapping residues) on a glass slide, three subarrays; recombinant Myc-CD2AP incubated 1 h at 30 °C in SmartBlock solution, TBS washes, detected with Alexa Fluor 488 anti-Myc-tag antibody; threshold 10,000 U
Settings: both partners purified

T1 sequence (Q9Y5K6 whole entry): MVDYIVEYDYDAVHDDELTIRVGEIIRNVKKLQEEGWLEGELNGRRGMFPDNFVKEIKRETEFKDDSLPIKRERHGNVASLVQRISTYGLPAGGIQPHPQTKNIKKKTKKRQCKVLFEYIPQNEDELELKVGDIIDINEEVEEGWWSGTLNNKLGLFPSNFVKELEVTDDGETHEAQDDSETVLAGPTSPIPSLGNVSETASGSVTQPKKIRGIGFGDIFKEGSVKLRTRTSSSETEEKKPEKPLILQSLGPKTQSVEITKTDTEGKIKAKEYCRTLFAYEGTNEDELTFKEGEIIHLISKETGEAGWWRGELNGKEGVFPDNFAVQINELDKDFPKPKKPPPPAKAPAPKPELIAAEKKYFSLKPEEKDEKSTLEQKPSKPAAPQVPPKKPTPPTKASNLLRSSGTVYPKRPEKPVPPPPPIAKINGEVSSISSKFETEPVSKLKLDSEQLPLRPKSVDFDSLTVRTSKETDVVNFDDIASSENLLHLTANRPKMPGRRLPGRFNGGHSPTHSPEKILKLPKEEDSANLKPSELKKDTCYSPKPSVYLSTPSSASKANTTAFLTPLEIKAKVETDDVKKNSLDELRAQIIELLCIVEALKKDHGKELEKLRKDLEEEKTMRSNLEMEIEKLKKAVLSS

binding result: binds
B1: TKS4 peptide 189 (15-mer of the PepStar peptide microarray) (peptide, UniProt A1X283 753-767, looked up)
peptide: QRPVVPPRRPPPPKK
notes: contains the motif 755-PVVPPR-760; source: synthetic peptide printed on a glass slide; bought: JPT Peptide Technologies (PepStar microarray)

binding result: binds
B2: TKS4 peptide 188 (15-mer of the PepStar peptide microarray) (peptide, UniProt A1X283 749-763, looked up)
peptide: EAPQQRPVVPPRRPP
notes: as for B1
